Assay results published in patent publication US5739281.

Target: natural affinity purified heavy chain class I K^d molecules
Assay: binding to natural class I heavy chain molecules, format not given (follows the binding inhibition experiment)

## Recombinant murine β2-microglobulin
  affinity, times lower than that of the (human) β2-microglobulin: 5 times lower
